Assays:
SEC = target: the molecule itself; assay: SEC
SPR = target: the molecule itself; assay: SPR

B1: glutathionylated T2D/A4V-SOD1 (GS-T2D/A4V-SOD1), C111-glutathionylation enriched species (enzyme)
chain: not shown
modifications: glutathionylation at C111 (enriched species); for SPR: biotinylated on one subunit (EZ-link NHS-LC-LC-biotin)
Question: B1 was tested. Which “stoichiometry N” value (SEC) did it give?
Answer: 2

Question: And the koff (SPR)?
Answer: 0.000161 s⁻¹

B2: double mutant T2D/A4V-SOD1, unmodified (enzyme)
chain: not shown
modifications: for SPR: biotinylated on one subunit (EZ-link NHS-LC-LC-biotin)
Question: How did the “stoichiometry N” value (SEC) turn out when B2 was run?
Answer: 2

Question: What about the koff (SPR) of the same protein?
Answer: 0.000156 s⁻¹
